The source of these data is patent US20260116951A1 (DUCENTIS BIOTHERAPEUTICS, published 2026).

Assay [1] deals with T1, Recombinant Cyno CD200R, His-tagged (Creative Biomart CD200R1-3483C) (cynomolgus monkey).
T1 construct: Bought; also called cynomolgus CD200R1; cynomolgus CD200R
The assay can be described thus: SPR (BIAcore), DS-118 captured (0.5 ug/mL), CynoCD200R1 flowed at 1000 nM to 62.5 nM, 25 C, 1:1 Binding model, run 2. Here is the method:
(§1) For human CD200 constructs: anti-human Fc (GE Healthcare) was covalently immobilized on a BIAcore CM5 sensor chip (Cytiva, BR100530) by amine coupling using a Cytiva kit (BR100839) following the manufacturer's instructions, targeting immobilization of 8,000-11,000 RU. CD200-Fc proteins were diluted to 0.5 μg/mL to 4 μg/mL in running Buffer (1×HBS-EP+pH7.4 (Cytiva BR100669), HEPES Buffered Saline pH 7.4 containing 3 mM EDTA and 0.05% v/v Surfactant P20) and flowed for 25 to 100 seconds at 10 μL/min over the immobilized Anti-Human IgG Fc, with a stabilization time of 60 seconds. Between 35 and 250 RUs of CD200-Fc were captured, with higher RUs used for cynomolgus CD200R binding experiments. […] Analysis temperature was 25° C. This was followed by regeneration of the surface with 30-90 second pulse of 3M MgCl₂ flowed at 30 L/min flow rate followed by stabilization of the surface with 60 second flow of running buffer.
(§2) For mouse CD200 constructs, muCD200R-Fc (Creative Biomart CD200R1-458M) diluted to 1 μg/mL in running buffer was flowed over the immobilized Anti-Human IgG Fc, with CD200 monomers serially diluted and flowed over captured CD200R. Other details were as above. Data analysis: experimental sensorgrams were analyzed in BIAevaluation software (GE Healthcare). The curves obtained were fitted to 1:1 Langmuir binding model by setting Rmax and RI as local parameters. Rate equations using standard parameters (e.g. ligand concentration, time) were used for iterative curve fitting. Closeness of fit was determined by algorithms provided by the manufacturer in the BIAevaluation software, and data accepted if the Chi² value was less than 10% of Rₘₐₓ, and the U value was less than or equal to 15.

Assay [2] deals with T1, Recombinant Cyno CD200R, His-tagged …. The assay can be described thus: SPR (BIAcore), DS-118 captured (0.5 ug/mL), CynoCD200R1 flowed at 1000 nM to 62.5 nM, 25 C, 1:1 Binding model, run 1. Here is the method:
as §1, §2

The target of assay [3] is T2, Recombinant Human CD200R, His-tagged (Creative Biomart CD200R1-320H) (human, UniProt Q8TD46 27-266).
T2 construct: Bought; also called human CD200 receptor; not shown: His tag
T2 sequence (looked up): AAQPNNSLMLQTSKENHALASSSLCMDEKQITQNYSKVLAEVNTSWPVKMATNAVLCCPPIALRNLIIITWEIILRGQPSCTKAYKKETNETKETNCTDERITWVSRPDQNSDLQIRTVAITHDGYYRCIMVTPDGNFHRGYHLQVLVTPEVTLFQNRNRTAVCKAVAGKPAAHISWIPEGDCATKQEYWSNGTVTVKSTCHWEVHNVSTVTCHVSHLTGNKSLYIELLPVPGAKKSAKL
In words: SPR (BIAcore), DS-118 captured (0.5 ug/mL), HuCD200R1 flowed at 100 nM to 6.25 nM, 25 C, 1:1 Binding model, run 2. Here is the method:
as §1, §2
(Surface plasmon resonance follows binding to a sensor surface in real time, without labels.)

The target of assay [4] is T2, Recombinant Human CD200R, His-tagged …. In words: SPR. An excerpt: Curves obtained were fitted to 1:1 Langmuir binding model by setting Rmax and RI as local parameters. Rate equations using standard parameters (e.g. ligand concentration, time) were used for iterative curve fitting. […] Means of 2 experiments carried out on the same day are shown with standard deviation. Residue numbering for CD200 proteins refers to the pre-protein, containing a signal peptide which is cleaved during insertion into the endoplasmic reticulum.

For assay [5] the target is unchanged. In words: SPR (BIAcore), DS-118 captured (0.5 ug/mL), HuCD200R1 flowed at 100 nM to 6.25 nM, 25 C, 1:1 Binding model, run 1. Here is the method: as §1, §2
Another assay deals with T3, Human PBMCs.
T3 construct: No receptor was assigned; also called human PBMCs, gated on live cells
The assay can be described thus: Flow cytometry, % binding on human PBMCs gated on live cells, 1 hour at 37 C, anti-human secondary antibody; the target protein on the cells is not named. Here is the method:
PBMC cells were re-suspended with a density of 0.1 million cells per assay point, with 50 μL FACS buffer (1×PBS+2% FBS). Dilutions of huCD200-Fc in 50 μL were added, starting at 10 μg/mL with 3-fold dilutions up to 10 concentrations with FACS buffer, and incubated for 1-hour at 37° C. At the end of each time point, cells were collected and washed (addition of 200 μL FACS buffer and centrifugation at 1400 RPM). 10 μg/mL of anti-human secondary antibody (Abcam Ab98596) was added together with excess Fc block (Innovex Biosciences no. NB309), and incubated for 30 minutes at 4° C. Cells were washed post incubation and stained to check viability (1 μL dye per million cells per mL 1×PBS, ThermoFisher C34557A) for 20 minutes at 4° C. Cells were washed and fixed with Fixation buffer (100 μL per test, BD Sciences 554655) at 4° C. for 20 minutes. Post incubation, cells were washed and the pellet was re-suspended in FACS buffer (100 μL per test) for data acquisition on the flow cytometer.

Assay [6] deals with T2, Recombinant Human CD200R, His-tagged …. The assay can be described thus: SPR (BIAcore). Here is the method:
as §1, with “This was followed by regeneration of the surface with 30-90 second pulse of 3M MgCl₂ flowed at 30 L/min flow rate followed by stabilization of the surface with 60 second flow of running buffer.” left out
For mouse CD200 constructs, muCD200R-Fc (Creative Biomart CD200R1-458M) diluted to 1 μg/mL in running buffer was flowed over the immobilized Anti-Human IgG Fc, with CD200 monomers serially diluted and flowed over captured CD200R. […] Data analysis: experimental sensorgrams were analyzed in BIAevaluation software (GE Healthcare). […] Closeness of fit was determined by algorithms provided by the manufacturer in the BIAevaluation software, and data accepted if the Chi² value was less than 10% of Rₘₐₓ, and the U value was less than or equal to 15.

B1: DS-118 (mutated human CD200-Fc fusion protein, K130Y, I131Y, IgG4 S228P Fc) (Fc fusion)
chain: QVQVVTQDEREQLYTPASLKCSLQNAQEALIVTWQKKKAVSPENMVTFSENHGVVIQPAYKDKINITQLGLQNSTITFWNITLEDEGCYMCLFNTFGFGYYSGTACLTVYVQPIVSLHYKFSEDHLNITCSATARPAPMVFWKVPRSGIENSTVTLSHPNGTTSVTSILHIKDPKNQVGKEVICQVLHLGTVTDFKQTVNKGPPCPPCPAPEFLGGPSVFLFPPKPKDTLMISRTPEVTCVVVDVSQEDPEVQFNWYVDGVEVHNAKTKPREEQFNSTYRVVSVLTVLHQDWLNGKEYKCKVSNKGLPSSIEKTISKAKGQPREPQVYTLPPSQEEMTKNQVSLTCLVKGFYPSDIAVEWESNGQPENNYKTTPPVLDSDGSFFLYSRLTVDKSRWQEGNVFSCSVMHEALHNHYTQKSLSLSLGK
notes: also called mutated CD200-Fc; mutant CD200-Fc
One may read the Kd as the free concentration of one partner at which half of the binding sites on the other are occupied at equilibrium, for simple one-to-one binding. The koff is a measure of how fast the partners let go of each other. Broadly, the kon is the rate constant with which the complex forms. As usually defined, the EC50 is the concentration at which the effect is half-maximal. High values mean a less potent agent, low ones a more potent agent. For B1, the dissociation constant Kd worked out at 204 nM in assay [1], 207 nM in assay [2], 1.42 nM in assay [3] and 1.21 nM in assay [5]. In addition, the koff in assay [1] turned out to be 0.0596 s⁻¹; in assay [2], 0.0164 s⁻¹; in assay [3] it was 0.000329 s⁻¹; in assay [5], 0.000278 s⁻¹. In addition, the kon in assay [1] came out at 292000 M⁻¹ s⁻¹; in assay [2], 79200 M⁻¹ s⁻¹; in assay [3], 232000 M⁻¹ s⁻¹; in assay [5], 230000 M⁻¹ s⁻¹. Further, in assay [4], the “fold increase in affinity from wild type” value is above 130 fold. Besides, in the assay with Human PBMCs, the EC50 turned out to be 0.29 µg/mL. Further, in assay [6], the “fold greater affinity than wild-type CD200-Fc (DS-155)” value was around 137 fold.
